This note sets out measurements from the Immune Epitope Database (IEDB).

The target in assay [1] is HLA-A*02:01. In words: IEDB peptide-MHC binding, purified MHC/competitive/radioactivity; ≥ and ≤ were set here for values at or beyond the usual limits of such assays.
The next assay deals with HLA-B*15:02. In words: IEDB peptide-MHC binding, purified MHC/competitive/fluorescence; filed as Kd, often an IC50 or EC50 that approximates it; ≥ and ≤ were set here for values at or beyond the usual limits of such assays.
Assay [2] deals with HLA-A*02:01. The description is as above.
The target of the next assay is HLA-A*02:11. The description is as above.
Another assay has as its target HLA-A*02:12. The assay is described as above.
Another assay has as its target HLA-A*02:16. The description is as above.
The next assay concerns the target HLA-A*02:19. Described as above.
The target in the next assay is HLA-A*03:01. The assay is described as above.
In the next assay the target is HLA-A*23:01. The assay is described as above.
In another assay the target is HLA-A*24:03. Described as above.
The next assay has as its target HLA-A*26:01. Described as above.
For a further assay, the target named is HLA-A*29:02. Described as above.
Another assay addresses HLA-A*69:01. The description is as above.
The next assay deals with HLA-B*15:01. Described as above.
The target in a further assay is HLA-B*15:17. Described as above.
Another assay deals with HLA-B*18:01. The description is as above.
Another assay has as its target HLA-B*27:03. Described as above.
A further assay concerns the target HLA-B*46:01. The assay is described as above.
The target in another assay is HLA-B*51:01. The assay is described as above.
A further assay has as its target HLA-B*57:01. Described as above.
A further assay concerns the target HLA-A*02:03. The description is as above.
The next assay deals with HLA-A*68:02. Described as above.
The next assay deals with HLA-B*39:01. Described as above.
The next assay has as its target HLA-C*07:02. Description: IEDB peptide-MHC binding, purified MHC/direct/fluorescence; filed as Kd, often an IC50 or EC50 that approximates it; ≥ and ≤ were set here for values at or beyond the usual limits of such assays.
The target in the next assay is HLA-B*08:01. Description: IEDB peptide-MHC binding, purified MHC/competitive/fluorescence; filed as Kd, often an IC50 or EC50 that approximates it; ≥ and ≤ were set here for values at or beyond the usual limits of such assays. Conditions: source organism: Yersinia pestis Nepal516.
The next assay addresses HLA-C*03:03. Description: IEDB peptide-MHC binding, purified MHC/direct/fluorescence; filed as Kd, often an IC50 or EC50 that approximates it; ≥ and ≤ were set here for values at or beyond the usual limits of such assays. Conditions: source organism: Listeria monocytogenes serotype 4b str. H7858.
Another assay deals with HLA-C*05:01. The assay is described as above. Conditions: source organism: Listeria monocytogenes serotype 4b str. H7858.
The next assay concerns the target HLA-C*12:03. The description is as above. To be noted: source organism: Listeria monocytogenes serotype 4b str. H7858.
The target in another assay is HLA-C*14:02. The description is as above. Conditions: source organism: Homo sapiens.
The next assay has as its target HLA-C*15:02. The description is as above. To be noted: source organism: Homo sapiens.
A further assay deals with HLA-A*01:01. Description: IEDB peptide-MHC binding, purified MHC/competitive/fluorescence; filed as Kd, often an IC50 or EC50 that approximates it; ≥ and ≤ were set here for values at or beyond the usual limits of such assays. Conditions: source organism: Homo sapiens.
The next assay concerns the target HLA-A*31:01. Described as above. Conditions: source organism: Entamoeba histolytica HM-1:IMSS.
Assay [3] addresses HLA-A*02:01. Description: IEDB peptide-MHC binding, purified MHC/competitive/radioactivity; filed as Kd, often an IC50 or EC50 that approximates it; ≥ and ≤ were set here for values at or beyond the usual limits of such assays. Conditions: source organism: Homo sapiens.
Where [4] appears, read: source organism: Escherichia coli E22.
The mark [5] stands for this setting: source organism: Orthomarburgvirus marburgense.
[6] abbreviates: source organism: Yersinia pestis Nepal516.
The mark [7] stands for this setting: source organism: Entamoeba histolytica HM-1:IMSS.
[8] abbreviates: source organism: Vibrio cholerae V52.

Bounds are passed on as bounds.

On to SLYNAVATL, for which the IC50 (in general, the midpoint of a concentration-inhibition curve) in the assay with HLA-A*02:01 [1] (source organism: Human immunodeficiency virus 1) is 0.029 µM.
Turning to RQASIELPSMAV, in the assay with HLA-A*02:01 [1] (source organism: Homo sapiens), the IC50 stood at 1.77 µM.
With SLFVRSAGQ, in the assay with HLA-B*15:02 (source organism: Burkholderia mallei JHU), the Kd (usually the free concentration of one partner at which half of the binding sites on the other are occupied at equilibrium, for simple one-to-one binding) was at least 20 µM.
YQTYVSPGA: the Kd is 0.0004 µM with HLA-A*02:01 [2] (setting [4]); at least 20 µM with HLA-A*02:11 (setting [4]); at least 20 µM with HLA-A*02:12 (setting [4]); at most 0.0001 µM with HLA-A*02:16 (setting [4]); at least 20 µM with HLA-A*02:19 (setting [4]); at least 20 µM in the assay with HLA-A*03:01 (setting [4]). Moreover, the Kd with HLA-A*23:01 (setting [4]), with HLA-A*24:03 (setting [4]), with HLA-A*26:01 (setting [4]), with HLA-A*29:02 (setting [4]), with HLA-A*69:01 (setting [4]) and with HLA-B*15:01 (setting [4]) was at least 20 µM each time. Besides, the Kd with HLA-B*15:17 (setting [4]), in the assay with HLA-B*18:01 (setting [4]), with HLA-B*27:03 (setting [4]), with HLA-B*46:01 (setting [4]), with HLA-B*51:01 (setting [4]) and with HLA-B*57:01 (setting [4]) was at least 20 µM in each case.
Take GIADFIIFK: the Kd in the assay with HLA-A*02:01 [2] (setting [5]), with HLA-A*02:03 (setting [5]), with HLA-A*02:11 (setting [5]), with HLA-A*02:12 (setting [5]), in the assay with HLA-A*02:16 (setting [5]) and with HLA-A*02:19 (setting [5]) was at least 20 µM in each case. Besides, the Kd is 0.188 µM with HLA-A*03:01 (setting [5]); at least 20 µM in the assay with HLA-A*23:01 (setting [5]); at least 20 µM with HLA-A*24:03 (setting [5]); at least 20 µM with HLA-A*26:01 (setting [5]); at least 20 µM in the assay with HLA-A*29:02 (setting [5]); at least 20 µM with HLA-A*68:02 (setting [5]). Also, the Kd with HLA-A*69:01 (setting [5]), with HLA-B*15:01 (setting [5]), with HLA-B*15:17 (setting [5]), with HLA-B*18:01 (setting [5]), with HLA-B*27:03 (setting [5]) and with HLA-B*39:01 (setting [5]) was at least 20 µM each time. The Kd with HLA-B*46:01 (setting [5]), in the assay with HLA-B*51:01 (setting [5]) and with HLA-B*57:01 (setting [5]) was at least 20 µM in each case.
Regarding YIYTRSFQM, the Kd in the assay with HLA-C*07:02 (setting [6]) was determined as 0.163 µM; in the assay with HLA-A*02:01 [2] (setting [6]), 0.0004 µM; with HLA-A*26:01 (setting [6]) it was 0.593 µM; with HLA-B*08:01 it was 0.0487 µM; in the assay with HLA-B*15:01 (setting [6]), 0.351 µM.
As to FLMYPNNIF, the Kd is 0.015 µM in the assay with HLA-C*03:03, 0.266 µM with HLA-C*05:01, 0.178 µM with HLA-C*12:03 and 0.0057 µM with HLA-B*15:02 (source organism: Listeria monocytogenes serotype 4b str. H7858).
In the case of MMQGTPYVY, the Kd in the assay with HLA-B*15:02 (source organism: Vibrio antiquarius) was 0.0059 µM.
On to MLYPRVWPY, for which the Kd is 0.238 µM with HLA-C*07:02 (source organism: Homo sapiens); 0.246 µM in the assay with HLA-C*14:02; at least 20 µM with HLA-C*15:02; 1.08 µM with HLA-A*01:01; at most 0.0001 µM in the assay with HLA-A*29:02 (source organism: Homo sapiens).
Consider IGKMNKHYK, for which the Kd in the assay with HLA-A*02:01 [2] (setting [7]), with HLA-A*02:03 (setting [7]), with HLA-A*02:11 (setting [7]), in the assay with HLA-A*02:12 (setting [7]), with HLA-A*02:16 (setting [7]) and with HLA-A*02:19 (setting [7]) was at least 20 µM each time. In addition, the Kd with HLA-A*03:01 (setting [7]) was at least 20 µM; with HLA-A*24:03 (setting [7]), at least 20 µM; with HLA-A*26:01 (setting [7]) it was at least 20 µM; in the assay with HLA-A*29:02 (setting [7]), at least 20 µM; in the assay with HLA-A*31:01, 0.16 µM; in the assay with HLA-A*68:02 (setting [7]) it was at least 20 µM. Besides, the Kd with HLA-A*69:01 (setting [7]), with HLA-B*15:01 (setting [7]), with HLA-B*15:17 (setting [7]), with HLA-B*18:01 (setting [7]), in the assay with HLA-B*27:03 (setting [7]) and with HLA-B*39:01 (setting [7]) was at least 20 µM in each case. In addition, the Kd with HLA-B*46:01 (setting [7]), in the assay with HLA-B*51:01 (setting [7]) and in the assay with HLA-B*57:01 (setting [7]) was at least 20 µM throughout.
As to VVLSWAPPV, the IC50 with HLA-A*02:01 [1] (source organism: Homo sapiens) came out at 0.0025 µM. The Kd with HLA-A*02:01 [3] is 0.0084 µM.
FLPADFFPSI: the IC50 with HLA-A*02:01 [1] (source organism: Hepatitis B virus) was determined as 0.016 µM.
Consider HLWNHNQQM, for which the Kd in the assay with HLA-B*15:02 (source organism: Venezuelan equine encephalitis virus) turned out to be 0.0499 µM.
As for IGYRLGMGK, the Kd with HLA-A*02:01 [2] (setting [8]), with HLA-A*02:03 (setting [8]), in the assay with HLA-A*02:11 (setting [8]), with HLA-A*02:12 (setting [8]), with HLA-A*02:16 (setting [8]) and with HLA-A*02:19 (setting [8]) was at least 20 µM each time. Moreover, the Kd was 0.0135 µM with HLA-A*03:01 (setting [8]); at least 20 µM with HLA-A*23:01 (setting [8]); at least 20 µM with HLA-A*24:03 (setting [8]); at least 20 µM with HLA-A*26:01 (setting [8]); at least 20 µM in the assay with HLA-A*29:02 (setting [8]); at least 20 µM with HLA-A*68:02 (setting [8]). The Kd with HLA-A*69:01 (setting [8]), with HLA-B*15:01 (setting [8]), with HLA-B*15:17 (setting [8]), with HLA-B*18:01 (setting [8]), with HLA-B*27:03 (setting [8]) and with HLA-B*39:01 (setting [8]) was at least 20 µM in each case. In addition, the Kd with HLA-B*46:01 (setting [8]), with HLA-B*51:01 (setting [8]) and with HLA-B*57:01 (setting [8]) was at least 20 µM in each case.
